# Laboratory results reported in the supplement of paper PMC9112550, “Optimization of the antimicrobial peptide Bac7 by deep mutational scanning” (BMC Biology, 2022).
# Tested on: Escherichia coli TOP10
# Test: shrunken log2 fold change of peptide-encoding DNA abundance (4.5 h post-induction vs induction); higher = less antimicrobial activity (less host growth inhibition)
# Settings: time post-induction: 4.5 h; library: site-saturation at positions 5, 18, 19, 20
# 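Note: peptides expressed intracellularly from a pBAD plasmid library in pooled LB shake-flask culture, induced with 0.3% L-arabinose, DNA abundance read by NGS, three biological replicates, DESeq2 with apeglm shrinkage.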
row,Sequence,shrunken log2 fold change
1,RRIRGRPPRLPRPRPRPDDHPRP,0.18
2,RRIRWRPPRLPRPRPRPWLRPRP,0.0741
3,RRIRLRPPRLPRPRPRPVTYPRP,-0.0255
4,RRIRVRPPRLPRPRPRPNTTPRP,-0.227
5,RRIRFRPPRLPRPRPRPCLYPRP,-0.881
6,RRIRFRPPRLPRPRPRPDMCPRP,0.124
7,RRIRTRPPRLPRPRPRPVYIPRP,-0.6
8,RRIRERPPRLPRPRPRPYNRPRP,-0.112
9,RRIRCRPPRLPRPRPRPPTYPRP,-0.133
10,RRIRRRPPRLPRPRPRPHQCPRP,-0.0941
11,RRIRERPPRLPRPRPRPWNGPRP,0.208
12,RRIRLRPPRLPRPRPRPDNIPRP,-0.535
13,RRIRCRPPRLPRPRPRPPVEPRP,0.35
14,RRIRHRPPRLPRPRPRPKMFPRP,-0.0772
15,RRIRVRPPRLPRPRPRPEHRPRP,-0.0452
16,RRIRERPPRLPRPRPRPWAFPRP,-0.165
17,RRIRFRPPRLPRPRPRPMDEPRP,0.0137
18,RRIRDRPPRLPRPRPRPRDFPRP,0.106
19,RRIRFRPPRLPRPRPRPDSGPRP,-0.0156
20,RRIRTRPPRLPRPRPRPKDMPRP,-0.0311
21,RRIRLRPPRLPRPRPRPPMRPRP,1
22,RRIRTRPPRLPRPRPRPERPPRP,0.267

row,Sequence,shrunken log2 fold change
1,RRIRARPPRLPRPRPRPHHPPRP,-0.242
2,RRIRYRPPRLPRPRPRPEIRPRP,-0.0132
3,RRIRARPPRLPRPRPRPYKPPRP,-0.304
4,RRIRHRPPRLPRPRPRPDWSPRP,0.00911
5,RRIRRRPPRLPRPRPRPQSDPRP,0.244
6,RRIRDRPPRLPRPRPRPLHNPRP,-0.338
7,RRIRYRPPRLPRPRPRPALSPRP,-0.0367
8,RRIRQRPPRLPRPRPRPDTGPRP,-0.0117
9,RRIRPRPPRLPRPRPRPSDVPRP,-0.249
10,RRIRMRPPRLPRPRPRPKLIPRP,-0.0987
11,RRIRVRPPRLPRPRPRPQESPRP,-0.0491
12,RRIRPRPPRLPRPRPRPMEPPRP,-0.153
13,RRIRKRPPRLPRPRPRPLEPPRP,0.238
14,RRIRKRPPRLPRPRPRPSTAPRP,-0.177
15,RRIRQRPPRLPRPRPRPLIWPRP,0.855
16,RRIRTRPPRLPRPRPRPNLMPRP,-0.164
17,RRIRTRPPRLPRPRPRPEKEPRP,0.0172
18,RRIRNRPPRLPRPRPRPNESPRP,-0.121
19,RRIRTRPPRLPRPRPRPINYPRP,-0.502
20,RRIRWRPPRLPRPRPRPLLRPRP,0.325
21,RRIRSRPPRLPRPRPRPIVWPRP,-0.0774
22,RRIRVRPPRLPRPRPRPSQRPRP,-0.0119

row,Sequence,shrunken log2 fold change
1,RRIRWRPPRLPRPRPRPPISPRP,0.172
2,RRIRCRPPRLPRPRPRPGPQPRP,0.117
3,RRIRHRPPRLPRPRPRPAFRPRP,0.0888
4,RRIRCRPPRLPRPRPRPFTCPRP,-0.223
5,RRIRIRPPRLPRPRPRPGNKPRP,-0.569
6,RRIRWRPPRLPRPRPRPRNDPRP,0.126
7,RRIRFRPPRLPRPRPRPSTSPRP,-0.0297
8,RRIRMRPPRLPRPRPRPYMLPRP,-0.0122
9,RRIRKRPPRLPRPRPRPLNYPRP,-0.217
10,RRIRLRPPRLPRPRPRPNTPPRP,-0.187
11,RRIRIRPPRLPRPRPRPYIAPRP,-0.158
12,RRIRMRPPRLPRPRPRPCDAPRP,0.261
13,RRIRLRPPRLPRPRPRPQLMPRP,0.0272
14,RRIRYRPPRLPRPRPRPTMKPRP,-0.285
15,RRIRQRPPRLPRPRPRPDFVPRP,0.0112
16,RRIRCRPPRLPRPRPRPVDHPRP,-0.148
17,RRIRYRPPRLPRPRPRPSMCPRP,-0.24
18,RRIRTRPPRLPRPRPRPAWRPRP,0.594
19,RRIRKRPPRLPRPRPRPCAWPRP,0.953
20,RRIRTRPPRLPRPRPRPEAWPRP,0.178
21,RRIRVRPPRLPRPRPRPPHPPRP,0.261
22,RRIRSRPPRLPRPRPRPRFPPRP,0.198

row,Sequence,shrunken log2 fold change
1,RRIRHRPPRLPRPRPRPTIPPRP,-0.028
2,RRIRMRPPRLPRPRPRPCGHPRP,0.0237
3,RRIRDRPPRLPRPRPRPFWRPRP,0.0187
4,RRIRHRPPRLPRPRPRPREWPRP,0.0987
5,RRIRMRPPRLPRPRPRPCFIPRP,-0.496
6,RRIRPRPPRLPRPRPRPQEPPRP,0.265
7,RRIRERPPRLPRPRPRPEGNPRP,0.00934
8,RRIRWRPPRLPRPRPRPQWSPRP,-0.0983
9,RRIRFRPPRLPRPRPRPQEHPRP,-0.115
10,RRIRVRPPRLPRPRPRPRSSPRP,-0.244
11,RRIRHRPPRLPRPRPRPLPNPRP,-0.156
12,RRIRPRPPRLPRPRPRPFIMPRP,-0.426
13,RRIRTRPPRLPRPRPRPSCWPRP,0.00851
14,RRIRFRPPRLPRPRPRPCPRPRP,0.0155
15,RRIRERPPRLPRPRPRPRRPPRP,0.27
16,RRIRKRPPRLPRPRPRPDFTPRP,-0.206
17,RRIRIRPPRLPRPRPRPNMIPRP,-0.225
18,RRIRIRPPRLPRPRPRPIWMPRP,-0.176
19,RRIRMRPPRLPRPRPRPQNHPRP,-0.337
20,RRIRVRPPRLPRPRPRPWVPPRP,-0.101
21,RRIRWRPPRLPRPRPRPGCFPRP,0.375
22,RRIRDRPPRLPRPRPRPCGDPRP,0.0915

row,Sequence,shrunken log2 fold change
1,RRIRCRPPRLPRPRPRPDNGPRP,-0.0856
2,RRIRTRPPRLPRPRPRPETMPRP,0.338
3,RRIRVRPPRLPRPRPRPRFLPRP,-0.247
4,RRIRFRPPRLPRPRPRPPRLPRP,0.399
5,RRIRVRPPRLPRPRPRPINWPRP,-0.147
6,RRIRPRPPRLPRPRPRPAIHPRP,-0.196
7,RRIRLRPPRLPRPRPRPLNMPRP,-0.461
8,RRIRQRPPRLPRPRPRPVELPRP,4.07e-05
9,RRIRQRPPRLPRPRPRPCSGPRP,-0.0532
10,RRIRFRPPRLPRPRPRPWVDPRP,-0.608
11,RRIRARPPRLPRPRPRPNEVPRP,0.0341
12,RRIRCRPPRLPRPRPRPPQFPRP,0.695
13,RRIRCRPPRLPRPRPRPPEMPRP,0.67
14,RRIRCRPPRLPRPRPRPLKPPRP,-0.225
15,RRIRKRPPRLPRPRPRPFEAPRP,2.17
16,RRIRCRPPRLPRPRPRPWLPPRP,-0.122
17,RRIRDRPPRLPRPRPRPYQPPRP,-0.0769
18,RRIRNRPPRLPRPRPRPVCQPRP,-0.0808
19,RRIRRRPPRLPRPRPRPYYRPRP,-0.186
20,RRIRKRPPRLPRPRPRPADNPRP,0.0284
21,RRIRKRPPRLPRPRPRPLSYPRP,-0.0509
